The target of experiment [1] is Anti-σ domain (ASD) of Mycobacterium tuberculosis RslA (residues 1–108), Zn2+-bound (Mycobacterium tuberculosis) (UniProt P9WJ67). As to the kind of experiment: crystal structure.
Experiment [2] concerns the target RsrA (Streptomyces coelicolor) (UniProt Q7AKG8). The conditions noted are these: cited from earlier work.

Chain of Anti-σ domain (ASD) of Mycobacterium tuberculosis RslA (residues 1–108), Zn2+-bound (Mycobacterium tuberculosis) (P9WJ67 1-108): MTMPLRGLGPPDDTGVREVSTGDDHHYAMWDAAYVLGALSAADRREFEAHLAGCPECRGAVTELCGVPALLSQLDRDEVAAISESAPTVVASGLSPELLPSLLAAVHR
Chain of σR (Q7AKG9 whole entry): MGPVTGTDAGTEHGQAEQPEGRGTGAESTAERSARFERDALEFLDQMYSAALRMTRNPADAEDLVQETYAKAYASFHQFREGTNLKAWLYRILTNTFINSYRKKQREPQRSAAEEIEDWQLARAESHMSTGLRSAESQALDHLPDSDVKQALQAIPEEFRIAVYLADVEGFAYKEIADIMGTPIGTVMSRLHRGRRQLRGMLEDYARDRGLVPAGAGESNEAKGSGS
Chain of RsrA (Streptomyces coelicolor) (Q7AKG8 whole entry): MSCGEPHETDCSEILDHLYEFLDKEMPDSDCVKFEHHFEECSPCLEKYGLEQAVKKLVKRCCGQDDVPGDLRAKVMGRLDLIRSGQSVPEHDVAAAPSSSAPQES

One may read the stoichiometry N as a count of units in the complex or per binding partner. Turning to “σ4^L, the −35-element recognition domain of Mycobacterium tuberculosis σ^L (from UniProt P9WGH5 99-177) (domain or fragment)”, the stoichiometry N in experiment [1] is 1. In general, Kd refers to the equilibrium constant for the complex coming apart. On to σR (from UniProt Q7AKG9), for which the Kd in experiment [2] is 10 nM.

The record behind these values is publication PMC2877774.
